Test results from the nanobody polyreactivity screen of Harvey et al. (2022).

Assay: yeast display, Sf9 membrane polyspecificity reagent, FACS + sequencing; frameworks hold sequencing errors
How it was run: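 In a synthetic yeast display library (Saccharomyces cerevisiae BJ5465), nanobody expression was induced with galactose for 36–48 hours. FACS gates were set low and high (top ~1%) using anti-HA fluorescence for expression and streptavidin fluorescence for binding of the Sf9 membrane reagent. Each polyreactivity label is drawn from the gate of origin.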

Sequence	polyreactivity (PSR sort gate)
QVQLVESGGGLVQAGGSLRLSCAASGSTFRGNAMGWYRQAPGKERELVAAISSSGGSTNYADSVKGRFTISRDNAKNTVYLQMNSLKPEDTAVYYCAAERYFVWPFLLKYDYWGQGTQVTVSS	low polyreactivity
QVQLVESGGGLVQAGGSLRLSCAASGSTFRGNTMGWYRQAPGKERELVAVISWSDGHTYYADSVKGRFSSSRDYAKNTGYLQMNSLKPEDPAVYYCAAPDPFYDLDSWGQGTQVTVSS	high polyreactivity
QVQLVESGGGLVQAGGSLRLSCAASGSTFRGYAMGWYRQAPGKERELVAAIRFSGGRTYYADSVKGRFTISRDNAKNTVYLQMNSLKPEDTAVYYCAKDYRPGWTGTDFYYWGQGTQVTVSS	low polyreactivity
QVQLVESGGGLVQAGGSLRLSCAASGSTFRGYVMGWYRQAPGQERELVAVINSSGGRTYYADSVKGRFTISRDNAKNTVYLQMNSLKPEDTAVYYCAARVLQYSGYYYWGQGTQVTVSS	high polyreactivity
QVQLVESGGGLVQAGGSLRLSCAASGSTFRHYAMGWYRQAPGKERELVAAISSTGGSTYYADSVKGRFTISRDNAKNTVYLQMNSLKPEDTAVYYCAARRLYWGQGTQVTVSS	high polyreactivity
QVQLVESGGGLVQAGGSLRLSCAASGSTFRHYAMGWYRQQPGKERELVAAISSRGGSTYYADSVKGRFTISRDNAKNTVYLQMNSLKPEDTAVYYCNVVGYLRPSYRHMDYWGQGTQVTVSS	high polyreactivity
QVQLVESGGGLVQAGGSLRLSCAASGSTFRIYAMGWYRQQHGKESEFVAAITGGGTHYADSVKGRFTISRDNAKNTVYLQMNRLKPEDTAVYFCAAGYFIRTLSRYRYDYWGQGTQVTVSS	high polyreactivity
QVQLVESGGGLVQAGGSLRLSCAASGSTFRKYAMGWYRQAPGKERELVATISRGTSTYYADSVKGRFTISRDNAKNTVYLQMNSLKPEDTAVYYCNAGYYNKRDGGYTYNYWGQGTQVTVSS	low polyreactivity
QVQLVESGGGLVQAGGSLRLSCAASGSTFRNNGMGWYRQAPGKERELVAAITKSGGSTYYADSVKGRFTISRDNAKNTVYLQMNSLKPEDTAVYYCAARFWYNTPRVGWRRYNYWGQGTQVTVSS	high polyreactivity
QVQLVESGGGLVQAGGSLRLSCAASGSTFRNYAMGWYRQAPGKEREFVAAITWSGGRTYYADSVKGRFTISRDNAKNTVYLQMNSLKPEDTAVYYCAARYRRGYDYWGQGTQVTVSS	high polyreactivity
QVQLVESGGGLVQAGGSLRLSCAASGSTFRPYAMGWYRQAPGKERELVAAITSTDVNTYYADSVKGRFTISRDNAKNTVYLQMNSLKPEDTAVYYCAAVYLGYYGVSDMEYWGQGTQVTVSS	high polyreactivity
QVQLVESGGGLVQAGGSLRLSCAASGSTFRPYSMGWYRQAPGKEREFVAAINYRGGSTNYADSVKGRFTISRDNAKNTVYLQMNSLKPEDTAVYYCAATYYLRLRRPYWQGFNYWGQGTQVTVSS	high polyreactivity
QVQLVESGGGLVQAGGSLRLSCAASGSTFRPYTMGWYRQAPGKERELVAAINRRGSSTYYADSVKGRFTISRDNAKNTVYLQMNSLKPEDTAVYYCNAVPGSRYGTYDYWGQGTQVTVSS	high polyreactivity
QVQLVESGGGLVQAGGSLRLSCAASGSTFRQNAMGWYRQAPGKERELVAAITYRVASTYYADSVKGRFTISRDNAKNTVYLQMNSLKPEDTAVYYCAARFGSGFNYWGQGTQVTVSS	high polyreactivity
QVQLVESGGGLVQAGGSLRLSCAASGSTFRQYAMGWYRQAPGKERELVAAISSGGRTNYADSVKGRFTISRDNAKNTVYLQMNSLKPEDTAVYYCAADIRRRVPVRGYYYWGQGTQVTVSS	high polyreactivity
QVQLVESGGGLVQAGGSLRLSCAASGSTFRRNAMGWYRQAPGKERELLAAISRRGGSTYYADSVKGRFTISRDNAKNTVYLQMNSLKPEDTAVYYCASAVTTYSQGQGVYSWGQGTQVTVSS	high polyreactivity

Sequence	polyreactivity (PSR sort gate)
QVQLVESGGGLVQAGGSLRLSCAASGSTFRRNAMGWYRQAPGKERELVAAISRSGGSTYYADSVKGRFTISRDNAKNTVYLQMNSLKPEDTAVYYCAADAARTSHWSGDYWGQGTQVTVSS	high polyreactivity
QVQLVESGGGLVQAGGSLRLSCAASGSTFRRNAMGWYRQAPGKERELVAAISSGGGSTYYADSVKGRFTISRDNAKNTVYLQMNSLKPEVTAVYYCAAGYFGHYVEYYYWGQGTQVTVSS	high polyreactivity
QVQLVESGGGLVQAGGSLRLSCAASGSTFRRNAMGWYRQAPGKERELVAAITRRGGTYYADSVKGRFTISRDNAKNTVYLQMNSLKPEDTAVYYCAADRSYYDWRYGGFDYWGQGTQVTVSS	high polyreactivity
QVQLVESGGGLVQAGGSLRLSCAASGSTFRRNAMGWYRQAPGKERELVASITSGGSTYYADSVKGRFTISRDNAKNTVYLQMNSLKPEDTAVYYCAVVWRGGYRWPYEYWGQGTQVTVSS	low polyreactivity
QVQLVESGGGLVQAGGSLRLSCAASGSTFRRNVMGWSRQAPGKERELVAVISKSGGSTYYADSVKGRFTISRDNAENTVYLQMNSLKPEDTAVYYCAARYLKGYGYWGQGTQVTVSS	high polyreactivity
QVQLVESGGGLVQAGGSLRLSCAASGSTFRRYAMGWYRQAPGKEREISTSDGSTYYADSVKGRFTISRDNAKNTVYLQMNSLKPEDTAVYYCATEIEYYVGSVPDMGYWGQGTQVTVSS	low polyreactivity
QVQLVESGGGLVQAGGSLRLSCAASGSTFRRYAMGWYRQAPGKERELVAGISYSGGRTYYADSVKGRFTISRDNAKNTVYLQMNSLKPEDTAVYYCAAKSFPSVRHHENYYWGQVTQVTVSS	high polyreactivity
QVQLVESGGGLVQAGGSLRLSCAASGSTFRRYVMGWYRQAPGKERELVAAIRWNVGSTYYADSVKGRFTISRDNAKNTVYLQMNSLKPEDTAVYYCAAYEYVRGGYGYWGQGTQVTVSS	high polyreactivity
QVQLVESGGGLVQAGGSLRLSCAASGSTFRSNAMGWYRQAPGKERELVAAIRYSGGSTYYADSVKGRFTISRDNAKNTVYLQMNSLKQEDTAVYYCATRFRTYYVDHGYWGQGTQVTVSS	high polyreactivity
QVQLVESGGGLVQAGGSLRLSCAASGSTFRSYAMGWYRQAPGKEREFVAALSSSDDSSYYADSVKGRFTISRDNAKNTVYLQMNSLKPEDTAVYYCAARPWNDGYYVGRFHMDYWGQGTQVTVSS	low polyreactivity
QVQLVESGGGLVQAGGSLRLSCAASGSTFRSYAMGWYRQSPGNERELVAAISYSGDSTYYADSVKGRFTISSDNAKNTVYLQMNSLKPEDTAVYYCAALRDWDIQCEPWKRYGYWGQGTQVTVSS	low polyreactivity
QVQLVESGGGLVQAGGSLRLSCAASGSTFRSYTMVWYRQAPGKERELVADINGTGGSTYYADSVKGRFTISRDNAKNTVYLQMNSRKPEDTAVYNCAADGYFRTVTSGWALRMGYWGQGTQVTVSS	high polyreactivity
QVQLVESGGGLVQAGGSLRLSCAASGSTFRTNGMGWYRQAPGKESELVAAITRGTSTNYADSVKGRFTISRDNAKNTVYLQMNSLKPEDTAVYYCAADGPDRYHYTTTRYRYDYWGQGTQVTVSS	low polyreactivity
QVQLVESGGGLVQAGGSLRLSCAASGSTFRTNTMGWYRQAPGKERELVADISWSGGSTYYADSVKGRFTISRDNAKNTVYLQMNSLKPEDTAVYYCAKDGAYWTYFSWYDYWGQGTQVTVSS	low polyreactivity
QVQLVESGGGLVQAGGSLRLSCAASGSTFRTYAMGWYRQAPGKERELVADITWRGGSTYYADSVKGRFTISRDNAKNTVYLQMNSLKPEDTAVYYCATDRGPEVVLYDYWGQGTQVTVSS	low polyreactivity
